Reference: the nanobody polyreactivity screen of Harvey et al. (2022)

Experiment: yeast display, Sf9 membrane polyspecificity reagent, FACS + sequencing; frameworks hold sequencing errors
Method in brief: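 Galactose-induced (36–48 hours) yeast carrying a synthetic nanobody display library were exposed to 10% biotinylated, detergent-solubilized Sf9 membrane reagent at 4 °C for 1 hour. FACS followed streptavidin microbead enrichment, using low and high (top ~1%) gates for expression (anti-HA) and reagent binding (streptavidin). Colony PCR, MiSeq 2 × 250 sequencing and CDR-length filtering followed. Labels for polyreactivity reflect the gate of origin.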

Row | Sequence | polyreactivity (PSR sort gate)
1 | QVQLVESGGGLVQAGGSLRLSCAASGIIFYTYAMGWYRQAPGKEREFVAGIRWSGSSTYYADSVKGRFTISRDNAKNTVYLQMNSLKPEDTAVYYCATGQPYGPLYSLGYGYWGQGTQVTVSS | high polyreactivity
2 | QVQLVESGGGLVQAGGSLRLSCAASGRILDGYAMGWYRQATGKERELVAAISRTGGGTYYADSVKGRFTISRDNSKNTVFLQMISLKPEDTAVYYCAKRRYYITLQADFDYWGQGTQVTVSS | low polyreactivity
3 | QVQLVESGGGLVQAGGSLRLSCAASGFIFRRYAMGWYRQAPGKERELVAAITRSGGSTYYADSVKGRFTISRDNAMNTVYLQMNSLKPEDTAVYYCNARYARVVPRYYYWGQGTQVTVSS | high polyreactivity
4 | QVQLVESGGGLVQAGGSLRLSCAASGYTFSYYTMGRYLQAPGKERELVAVITSAGGTYFADSVKGRFTISRDNAKNTVYLQMNSLKPEDTAVYYCAAERWADYVWIFIDDYDYLGQGTQVTVSS | low polyreactivity
5 | QLQLVESGGGLVQAGGSLRLSCAASGSTFPWYTMGWYRQAPGKERELVAAITWNGVSTYYADSVKWRITISRDNAKNTVYFQMNSLKPEDTAVYYCATRIKRIGGFPYYYWGQGTQVTVSS | high polyreactivity
6 | QVQLVESGGGLVQAGGSLRLICAASGRIFFVNAMGWYRQAPGKERELVAAISRSAGRTYYADSVKGRFTISRDNAKNTVYLQMNSLKPEDTAVYYCATEGRTDYNREMEYWGQGTQVTVSS | low polyreactivity
7 | QVQLVESGGGLVLAGGSLRLSCASSGRIFYGYAMVWSRQAPGKERELVAAITSSGRTYYADSVKGRFSISRDNAKNTVYLLMNSLKPEDTAVYYCNVVTKFTGRGYDFWGQGTQVTVSS | high polyreactivity
8 | QVQLVESGGGLVQAGGSLRLSCAASGFTFRWYDMGWYRQAPGKERELVAAIDASDGSTYYADSVKGRFTISRDNAKNTVYLQMNSLKPEDTAVYYCAADSYYRYYWGQGTQVTVSS | high polyreactivity
9 | QVQLVESGVGLVQAGGSLRLSCAASGSIFEDYVMGWYRQAPGKERELVADITSGGTTYYADSVKGRFTISRDNAKNTVYLQMNSLKPEDTAVYYCAAEVDWVPFLLDYWGQGTQVTVSS | low polyreactivity
10 | QVQLVESWRGLVQAGGSLRLSCAASGNTFVYNAMRWYRQAPGKERELVAGITKTGGRTYYADSVKGRFTISRDIAKNTVYLEMNSLKPEDTAVYYCAARPWNDGYYVGRFHMVYWGQGTQVTVSS | low polyreactivity
11 | QVQLVESGGGLVQAGGSLRLSCAASGFIFVKNAMGWYRQAPGKERELVAVISTRGGRTYYADSVKGRFTISRDNAKNTVYLQMNSLKPEDTAVYYCAALYWYSRSSWDYDYWGQGTQVTVSS | high polyreactivity
12 | QVQLVESGGGLVQAGGSLRLSCAASGRTFIGNAMGWYRQAPGKERELVAGISYRGGSTYYADSVKGRFTISRDNAKNTVYLQMNSLKPEDTAVYYCAAPGRGGYYYWGQGTQVTVSS | high polyreactivity
13 | QVQLVESGGGLVQAGGSLRLSCAASGRIFDYYAMGWYRQAPGKERELVAAITSGGTTTYYADSVKGRFTNSRDNAKNTVYLQLNSLKPEDTAVYFCAKYPYHIYHTDGDYWGQGTQVTVSS | low polyreactivity
14 | QVQLVESGGGLVQAGGSLRLSCAASGNTFNVYAMGWYRQAPGKERELVAAITLSGGSTYYADSVKGRFTISRDNEKNTVYLQMNSLKPEDTAVYYCNAEEDGTDYDYWGQGTQVTVSS | low polyreactivity
15 | QVQLVESGGGLVQAGGSLRLSCAASGSSFSYYTMGWYRQAPGKERELVAAITSGGPTNYADSVKGRFTISRDNAKKTVYLQMNSLKPEDTAVYYCAADLYYGWGYYYWGQGTQVTVSS | low polyreactivity
16 | QVQLVESGGGLVQAGGSLRLSCAASGFTFQKNAMGWNRQAPGKERDLVARITRSDGSTYYADSVKGRFTISRDNAKNTVYLPMNSLKPEDTAVYYWAARYCRLGSSRGGYWGQCTQVTVSS | low polyreactivity
17 | QVQLVESGGGLVQAGVSLRLICAASGSIFITNFMGWYRQAPGKERELVAVISASGGSTYYADSVKGRFTISRDNAKNNVYLQMNSMKPEDTAVYYCARTQRRYSYGQMGYWGQGTQVTVSS | high polyreactivity
18 | QVQLVESGGGLDQAGGSLRLSCAASGSIFDPYAMGWYRPAPGKEREFVAVISKGGTNTYYADSVKGRFTISRDNAKNTVYLQMNSLKPEDTAGYYCAARVDTYRAKYYYWRQGTQVTVSS | high polyreactivity
19 | QVQLVESGGGLVQAGGSLRLSCAASGFTFTGNVMGWYRQAPGKERELVAAISSRGVSTYYADSVKGRFTISRDNAKNTVYLQMNSLKPEDTAVYYCAVSRIVDFGQKMYYWGQGTQVTVSS | high polyreactivity
20 | QVQLVESGGGLVQAGGSLRLSCAASGGTFYYNTMGWYRQAPGQERELVAAIRSTGGSTYDADSVKGRFTISRDNAKNTVYLQMNSLKPEDTAVYYCAKKVYTRRRGSDYWGQGTQVTVSS | high polyreactivity
21 | QVQLVESGGGLVQAGGSLRLSCAASGSIFVGYAMGWYRQAPGKERELVAAISWSGDSTYYADSVKGRFTISRDNAKNTVYLQMNSLKPEDTAVYYCAVDYAEIGPRREVEYDYWGQGTQVTVSS | low polyreactivity

Row | Sequence | polyreactivity (PSR sort gate)
22 | QVQLVESGGGLVQAGGSLRLSCAASGRTFFKYAMGGYRQAPGKERELVAAITGRGDRTYYADSVKGRFTISRDNAKNTVYLQMNSLKPEDTAVYYCAAGAPAHHASFYYWGQGTQVTVSS | high polyreactivity
23 | QVQLVESGAGLVQAGGSLLLSCAASGYIFDVYDMGWYRQAPGKERELVAAITDYADSVKGRFTISRDNAKNTVYLQMNSQKPEDTAVYYCAADTDVLKGTTGFEYWGQGTQVTVSS | low polyreactivity
24 | QVQLVESGGGLVQAGGSLRLSCAASGSIIWLYAMGWYRQAPGKERELVAAISSGGSTYYADSVKGRFTISRDNAKNTVYLQMNSLKPEDTAVYYCAADYWSQSDWWDLTEYEYWGLGTQVTVSS | high polyreactivity
25 | QVQLVESGGGLVQAGGSLRLSCAASGSIFQDYTMGWYRQAPGKDRELVAAITDNGGSTYYADSVKGRFTISRDNAKNTVYLQMNSLKPEDTAVYYCAKDWDYSAPGYYLYGYWGQGTQVTVSS | low polyreactivity
26 | QVQLVESGGGLVQAGGSLRLSCAASGIIFYYYTMGWYRQAPGKETELVASITWSGGGSTYYADSVKGRFTISRDNAKNTVYLQMNSLKPEDTAVYYCNADEYYSYDYWGQGTQVTVSS | low polyreactivity
27 | QVQREESVGGLVQAGVSLRLSCAASGLTLAPYAMGAYRQAPGKERELVAAITFSGGSTYYADSVKGRFTISRDNAKNTVYLQMNSLKPEDTAVYYCARDTWAYKYVYPYYSWGQGTQVTVSS | low polyreactivity
28 | QVQLVESGGGLVQAGGSLRLICAASGRTFRYYAMGWYRQAPGKERELVAAITTGSSTYYADSVKGRFTISRDNAKNTVYLQMNSLKPEDTAVYYCNVFQGTRYGYWGQGTQVTVSS | low polyreactivity
29 | QVQLVESGGGLVQAGGSLRLSCAASGGTIENYAMGWYRQAPGKERELVAAISSGGSTNYADSVKGRFTISRDNAKNTVYLQMNSLKPEDTAVYYCATRGIWKKVPYYYWGQGTQVTVSS | low polyreactivity
30 | QVQLVESGGGLVQAGGSLRLSCAASGGTFLYNAMGWYRQAPGKERELVAAISRSGGRTDYADSVKGRFTISRDNAKNTVYLQMNSLKPEDTAVYYCATPGTYYTHRYRYDYWGHGTQVTVSS | high polyreactivity
31 | QVQLVESGGGLVQAGGSLRLSCAASGRIFRWSVRGWYRQAPGKERELVAAISYGSGSTYYADSVKGRFTISRDNAKNTVYLQMNSLKPEDTAVYYCAADSQAARYHAYDYWGQGTQVTVSS | high polyreactivity
32 | QVHLVESGGGIVQAGGSLPLTCAAYGSIFNRYAMGWYRPAPGKERQLVAAISLTSGSTYYADYVKGRFTISRDNEKITVYLQMNSLKPEDTAVYYCATRRKVGPTQVGFYYRGGVDYWGQGTQVTVSS | high polyreactivity
33 | QVQLQESAGGLVQAGGSLRLRCSASGYISCDASMGWYRQAPGKERELAASITKGSSTNYADSVKGRFTIRDNAKNTVYLQMNSLKPEDTSVCYCAVTYPYWGDYTYWGQGTQVTVSS | low polyreactivity
34 | QVQLVESGGGLVQAGGSLRLSCAASGSTIFGNVMGWYRQAPGKERELVAVITNRGGSTYYADSVKGRFTISRDNAKNTVYLQMNSLTPEDTAVYYCNARPLYHFWYYSGEEYGYWGQGTQVSVSS | high polyreactivity
35 | QVQLVESGGGLVQAGGSLRLSCAASGNIFQGNAMGWYRQAPGKERELVAAITSDGSTYADSVKGRFTISRDNAKNTVYLQLNSLKPEDTAVYYCNADGITSLPVPALDYWGQGTQATVSS | low polyreactivity
36 | QVQLVESGGGLVQAGGSLRLSCAASGRISYSNAMGWYRQAPGKERELVAAITSSGGSTYYADSVKGRFTISRDNAKNTVYLQMNSLKPEDTAVYYCAAVAYALGFASKEDYWGQGTQVTVSS | high polyreactivity
37 | QVQLVESGGGLVQAGGSLRLSCAASGRIFSNNAMGWYRQAPGKERELVAAISSSGSTYYADSVKGRFTISRDNAKNTVYLLMNSLKPEDTAVYYCAVVYGYPYLRGYVYGFNYWGQGTQVTVSS | low polyreactivity
38 | QVQLVESGGCLVQAGGSLRLSCAASGSTFVKIVMGWYRQAPGKERELVAGITRGGSTYYADSVKGRFTISRDNAKNTVYLQMNSLKPEDTPVYYCAKRYAWDRDYWGQGTQVTVSS | high polyreactivity
39 | QVQLLESGGGLVQARGSLRLSCAASGRILEGYAMGWYRPAPGKERELVAALSFSTTPTYYADSVKGRFTISRDNAKNTVYLQMYSLKPEDTAVDYCAADSQQSDYDYWGQGSQVTVSS | high polyreactivity
40 | QVQLVESGGGLVQAGGSLRLSCAASGRTVSFYDMGWYRQAPGKERELVAAINSGSSTYYADSVKGRCTISRDNANTTVYLQMNSLKPEDTAVYYCADEPYFWWQNEYWGQGTQVTVSS | high polyreactivity
41 | QVQLVESGGGLVHAGGSLRLSCAASGRTFRDNVMGWSRQAPGKERELVAAISRSGGSTYYADSVKGRFTISRDNAKHTVYLQMNSQKPEDTAVYYSNAPYYVRSQYTFDYWGQGTQVTVSS | high polyreactivity
